Data as given in patent US20260116996A1 (REGENTS OF THE UNIVERSITY OF MINNESOTA, published 2026).

How the values were obtained:
[1] = target: T1, recombinant human serpinB13 (human, UniProt Q9UIV8 1-391)
T1 construct: The baculovirus-made protein (GenScript) was used for panning, ELISA and the cathepsin L assay; In the Luminex assay human serpinB13 was V5-His tagged and came from 293 cell lysates; also called rhB13
T1 sequence (looked up): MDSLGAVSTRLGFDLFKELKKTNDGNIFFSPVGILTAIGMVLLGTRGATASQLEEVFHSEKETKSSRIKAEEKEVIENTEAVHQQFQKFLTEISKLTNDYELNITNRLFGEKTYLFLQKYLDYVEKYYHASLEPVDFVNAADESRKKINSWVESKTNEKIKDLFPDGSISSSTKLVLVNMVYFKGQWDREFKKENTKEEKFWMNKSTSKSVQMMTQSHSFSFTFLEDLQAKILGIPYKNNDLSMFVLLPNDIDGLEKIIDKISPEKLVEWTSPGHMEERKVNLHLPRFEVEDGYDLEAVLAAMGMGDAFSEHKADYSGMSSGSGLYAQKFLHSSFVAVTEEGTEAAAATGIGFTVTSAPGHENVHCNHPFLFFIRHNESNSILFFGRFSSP

[2] = target: mouse serpinB13 (mouse) (UniProt Q8CDC0); assay: flow cytometry, isotype control staining in place of B29 and anti-EpCAM; the tissue of this panel is not named
Chain of mouse serpinB13 (mouse) (Q8CDC0 whole entry): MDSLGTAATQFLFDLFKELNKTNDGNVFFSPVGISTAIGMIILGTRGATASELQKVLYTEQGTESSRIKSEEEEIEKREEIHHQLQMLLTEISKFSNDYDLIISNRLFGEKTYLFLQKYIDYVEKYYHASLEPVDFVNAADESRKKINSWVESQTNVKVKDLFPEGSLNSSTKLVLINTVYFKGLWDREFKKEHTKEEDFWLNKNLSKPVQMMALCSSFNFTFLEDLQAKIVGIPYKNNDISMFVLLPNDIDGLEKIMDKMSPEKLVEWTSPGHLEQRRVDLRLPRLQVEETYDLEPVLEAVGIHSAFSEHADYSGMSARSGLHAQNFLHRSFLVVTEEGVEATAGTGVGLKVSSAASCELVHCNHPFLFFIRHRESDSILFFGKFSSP

| quadrant Q1 (SerpinB13-Alexa647 high, EpCAM low), percent of cells [2] | Substance | substrate cleavage by CatL (fluorescence, kinetic mode) [1] |
| --- | --- | --- |
|  | cathepsin L (Cathepsin L Inhibitor Screening Kit, BioVision) | Inhibition of a substrate cleavage by CatL with different doses of recombinant human serpinB13 over time |
| 0.43 | Control Ab (antibody) |  |
